Experimental data taken from article PMC8354326.

How the values were obtained:
[1] = biological target: 2G12; experiment: ELISA; conditions: parent: 1.0
[2] = biological target: PGT145; experiment: ELISA; conditions: parent: 1.0

Row | Substance | ratio to parent [1] | ratio to parent [2]
1 | AMC008 SOSIP.v4.2 Env trimer N624D | 0.8 | 0.9
2 | AMC008 SOSIP.v4.2 Env trimer D620N | 0.9 | 1.5
3 | AMC008 SOSIP.v4.2 Env trimer N637Q | 0.9 | 0.8
4 | AMC008 SOSIP.v4.2 Env trimer K232T; K236T | 0.9 | 0.9
5 | AMC008 SOSIP.v4.2 Env trimer E662A | 0.9 | 1.1
6 | AMC008 SOSIP.v4.2 Env trimer N616Q | 0.9 | 0.9
7 | AMC008 SOSIP.v4.2 Env trimer N88Q | 0.8 | 0.8
8 | AMC008 SOSIP.v4.2 Env trimer N611Q | 0.8 | 0.8
9 | AMC008 SOSIP.v4.2 Env trimer K232T | 0.9 | 1
10 | AMC008 SOSIP.v4.2 Env trimer K236T | 0.9 | 1
